In patent US20100297135A1 (CRC FOR ASTHMA AND AIRWAYS, published 2010):

What was measured:
wild type human GM-CSF [1] = target: T1, wild type human GM-CSF (human, UniProt P04141 18-144); assay: cell-based or functional assay
wild type human GM-CSF [2] = target: T1, wild type human GM-CSF; assay: SPR (Biacore), human GM-CSF coated on CM5 chip, antibody injected; GM-CSF coated onto CM5 chip, antibody injected
Procedure: (§1) Recombinant human GM-CSF was coated onto a CM5 chip to determine the binding kinetics of 4K21 mAb. An uncoated flow cell was used as a reference. The antibody, prepared in HBS-EP at concentrations of 66.7 nM to 4.17 nM with 2-fold serial dilution, was injected for 2 minutes with a stabilisation time of 10 minutes and dissociation time of 15 minutes. The BIACore kinetic analysis wizard was run to determine each antibody's association (ka [1/Ms]), dissociation (kd[1/s]) and affinity (KD [nM]) to GM-CSF. […] Moreover, binding of 4K21 mAb to human GM-CSF is highly specific.

wild type human GM-CSF [3] = target: T1, wild type human GM-CSF; assay: SPR (Biacore), human GM-CSF coated on CM5 chip, antibody injected
Procedure: as §1

[4] = target: human GM-CSF alanine mutant I101A (human, UniProt P04141 18-144); assay: semi-quantitative ELISA; GM-CSF polypeptide coated in serial dilutions (x axis = log coating concentration, no unit), 4K21 fixed at 12.5 ng/ml, goat anti-mouse IgG-HRP, absorbance
Procedure: (§2) The binding analysis of 4K21 to the mutant GM-CSF polypeptides M1 to M5b was performed using a semi-quantitative ELISA. Approximately equal amounts of GM-CSF were used to coat a Maxisorb (Nunc. Cat #464718) 384 well plate and serially diluted 2-fold to the bottom of the plate (16 times). Coating was performed overnight at room temperature. Plates were washed 3 times with wash buffer (1×PBS, 0.05% tween) and blocked for 1 hr at 37° C. with PBS, 1% BSA solution. Plates were then washed 3 times with wash buffer. […] The plates were washed 3 times with wash buffer then secondary antibody, HRP conjugated goat anti mouse IgG (Jackson Cat #115-036-062) for 4K21 and rabbit anti rat IgG (BD, cat#P0450) for the BD commercial antibody was added to the wells at 1/5000 dilution and incubated at 37° C. for 1 hr. Plates were washed 4 times following which BD OptEIA TMB substrate (Cat #555214), prepared according to the manufacturer's instructions, was added to the wells and incubated at room temperature for 10 minutes. The reaction was stopped with 1M sulphuric acid and the plate read on a Tecan plate reader at 450 nm with reference filter at 620 nm.
(§3) Binding analysis was carried out essentially as described above with the exception of the method of quantitation. The BD antibody was used to quantitate the relative expression of the alanine mutants as none of these mutants were in the M2 binding epitope of the BD antibody. […] The binding was then compared to 4K21 used at 12.5 ng/ml with the secondary antibody being goat anti-mouse IgG-HRP antibody (Cat #115-036-062) at 1/2500 dilution.

S96A = target: T2, S96A; assay: as above
T2 construct: also called human GM-CSF alanine mutant S96A
Procedure: as §2, §3

Q100A = target: T3, Q100A; assay: as above
T3 construct: also called human GM-CSF alanine mutant Q100A
Procedure: as §2, §3

T99A = target: T4, T99A; assay: as above
T4 construct: also called human GM-CSF alanine mutant T99A; the BD entry of the legend box prints 'T97A'
Procedure: as §2, §3

[5] = target: human GM-CSF alanine mutant C89A (human, UniProt P04141 18-144); assay: as above
Procedure: as §2, §3

murine GM-CSF = target: T5, murine GM-CSF (murine, UniProt P01587 18-141); assay: semi-quantitative ELISA (data not shown)
T5 construct: also called wild type murine GM-CSF
T5 sequence (looked up): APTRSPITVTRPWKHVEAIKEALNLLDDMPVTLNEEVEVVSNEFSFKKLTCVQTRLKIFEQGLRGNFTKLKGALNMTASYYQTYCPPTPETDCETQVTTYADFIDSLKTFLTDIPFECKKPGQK

wild type human GM-CSF [6] = target: T1, wild type human GM-CSF; assay: SPR (Biacore), alternative method of antibody capture; alternative method of antibody capture
[7] = target: T6, human GM-CSF mutant M2 (R24 to M37 replaced by murine sequence) (human); assay: semi-quantitative ELISA; GM-CSF polypeptide coated in 2-fold dilutions (x axis = coating concentration), 4K21 fixed at 12.5 ng/ml, goat anti-mouse IgG-HRP, absorbance 450 nm
T6 construct: The flanking ranges are derived from the stated region
Procedure: as §2

T1 sequence (P04141 other isoform, or with tags, fused parts or gaps limits assumed): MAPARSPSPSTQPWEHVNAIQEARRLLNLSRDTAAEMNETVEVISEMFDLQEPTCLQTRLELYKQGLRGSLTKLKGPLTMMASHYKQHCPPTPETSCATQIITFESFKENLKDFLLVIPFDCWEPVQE
T6 sequence (P04141 other isoform, or with tags, fused parts or gaps mutant): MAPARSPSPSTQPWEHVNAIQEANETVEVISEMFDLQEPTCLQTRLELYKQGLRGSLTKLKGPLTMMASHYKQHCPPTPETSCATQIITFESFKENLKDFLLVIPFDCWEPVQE
T2 sequence (single chain, as listed by the source S96A S96A): as the sequence (P04141 other isoform, or with tags, fused parts or gaps limits assumed) above, with S96A counted along it
Chain of human GM-CSF alanine mutant C89A (P04141 other isoform, or with tags, fused parts or gaps C89A C89A limits assumed): as the sequence (P04141 other isoform, or with tags, fused parts or gaps limits assumed) above, with C89A counted along it
Chain of human GM-CSF alanine mutant I101A (P04141 other isoform, or with tags, fused parts or gaps I101A I101A limits assumed): as the sequence (P04141 other isoform, or with tags, fused parts or gaps limits assumed) above, with I101A counted along it
T4 sequence (single chain, as listed by the source T99A T99A): as the sequence (P04141 other isoform, or with tags, fused parts or gaps limits assumed) above, with T99A counted along it
T3 sequence (single chain, as listed by the source Q100A Q100A): as the sequence (P04141 other isoform, or with tags, fused parts or gaps limits assumed) above, with Q100A counted along it

- IC50, neutralisation of human GM-CSF dependent TF-1 cell growth (3H-thymidine) (wild type human GM-CSF [1]): ~0.308 nM
- Kd (wild type human GM-CSF [2]): ~0.2 nM
- Ka (wild type human GM-CSF [3]): > 5.9e+09 M⁻¹
- Kd (wild type human GM-CSF [3]): < 0.17 nM
- koff (wild type human GM-CSF [3]): < 1e-05 s⁻¹
- kon (wild type human GM-CSF [3]): 59000 M⁻¹ s⁻¹
- binding result [4]: binds
- binding result (S96A): binds
- binding result (Q100A): binds
- binding result (T99A): binds
- binding result [5]: binds
- binding result (murine GM-CSF): no binding
- Kd (wild type human GM-CSF [6]): ~0.43 nM
- EC50 (read off the curve) [7]: ~20 µg/mL
B1: murine anti-human GM-CSF monoclonal antibody 4K21-O11-E14 (antibody, V domains shown)
VH: EVQLVESGGGLVKSGGSLKLSCAASGFAFSAYDMSWVRQTPEKRLELVAYISSGGSSFYYPDTVKGRFTISRDNAKNTLYLQMSSLKSEDTAMYYCTRHLGFDYWGQGTTLTVSS
VL: DVVMTQTPLSLPVSLGDQASISCRSSQSLVNSNGNTYLHWFLQKPGQSPKLLIYKVSNRFSGVPDRFSGSGSGTDFTLKISRVEAEDLGVYFCSQSTHVPPTFGGGTKLEIK
notes: Murine monoclonal antibody from a hybridoma (ECACC 07051601), detected with anti-mouse IgG; also called 4K21 mAb; mAb 4K21
